# Measured values: article PMC3032569 (The Biochemical journal, 2009)
# Where no end group is shown, it is not given here.
# T1: E. coli TonB C-terminal domain (TonB CTD, residues 103-239) (E. coli, UniProt P02929 103-239)
# T1 sequence (looked up): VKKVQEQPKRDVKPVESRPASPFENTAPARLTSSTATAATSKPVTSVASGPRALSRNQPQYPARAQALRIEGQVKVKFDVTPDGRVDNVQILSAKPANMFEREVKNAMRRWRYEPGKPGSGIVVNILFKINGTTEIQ
# Biological target: T1, E. coli TonB C-terminal domain (TonB …)
# Assay: NMR titration
binder,measurement,value
Ac-EDTITVTAAP [FhuA TonB box peptide],binding result,binds
